# T1: Swi1 (S. cerevisiae, UniProt P09547 1-1314)
# T1 sequence: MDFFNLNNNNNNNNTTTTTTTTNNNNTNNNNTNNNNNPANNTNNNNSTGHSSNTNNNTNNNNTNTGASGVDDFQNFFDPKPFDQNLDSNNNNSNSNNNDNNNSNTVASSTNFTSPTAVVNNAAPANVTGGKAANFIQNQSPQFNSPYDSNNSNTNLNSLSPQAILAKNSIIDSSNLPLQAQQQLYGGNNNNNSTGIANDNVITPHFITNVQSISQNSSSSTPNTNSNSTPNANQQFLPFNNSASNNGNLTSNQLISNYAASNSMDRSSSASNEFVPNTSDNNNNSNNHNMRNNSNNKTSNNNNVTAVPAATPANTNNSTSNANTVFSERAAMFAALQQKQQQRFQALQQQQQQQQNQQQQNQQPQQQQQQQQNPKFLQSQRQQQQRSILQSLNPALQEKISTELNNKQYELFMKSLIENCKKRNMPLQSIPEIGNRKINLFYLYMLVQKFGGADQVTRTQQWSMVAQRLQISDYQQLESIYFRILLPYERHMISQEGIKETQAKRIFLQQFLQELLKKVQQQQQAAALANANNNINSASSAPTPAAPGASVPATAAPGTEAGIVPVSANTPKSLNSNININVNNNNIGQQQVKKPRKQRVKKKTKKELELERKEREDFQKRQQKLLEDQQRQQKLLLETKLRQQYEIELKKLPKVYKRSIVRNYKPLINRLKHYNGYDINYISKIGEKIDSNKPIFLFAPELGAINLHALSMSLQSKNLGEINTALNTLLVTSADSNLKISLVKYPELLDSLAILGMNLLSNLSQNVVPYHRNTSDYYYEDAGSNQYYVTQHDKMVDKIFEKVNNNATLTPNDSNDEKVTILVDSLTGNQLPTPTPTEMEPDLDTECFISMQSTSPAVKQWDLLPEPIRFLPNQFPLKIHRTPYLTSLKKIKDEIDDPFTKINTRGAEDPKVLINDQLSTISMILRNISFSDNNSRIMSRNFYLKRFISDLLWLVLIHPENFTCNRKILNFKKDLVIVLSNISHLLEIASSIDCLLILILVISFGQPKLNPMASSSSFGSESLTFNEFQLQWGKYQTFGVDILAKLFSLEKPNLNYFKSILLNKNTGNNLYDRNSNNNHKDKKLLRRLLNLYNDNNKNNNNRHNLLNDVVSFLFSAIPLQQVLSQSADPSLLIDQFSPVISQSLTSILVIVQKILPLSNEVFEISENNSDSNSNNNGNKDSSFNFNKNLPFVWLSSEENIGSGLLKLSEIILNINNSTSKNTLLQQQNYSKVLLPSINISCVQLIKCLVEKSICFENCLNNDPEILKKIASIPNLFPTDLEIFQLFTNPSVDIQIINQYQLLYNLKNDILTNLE
# B1: Swi3 (natural protein)
# chain: MENTLGEGSTVNASVDVDQHGNDNNSDSNANAAVAGVANTDTAGEESQQQDESLKDEATVPNTRDAESEAITVTAKQQPTMQANKLDSQETPSTEESRAQNVFGQDNEDSDNLFGETESSVSNNEANTPSIPTNPVDNENNKPAIKEDSTIQDSNGDVKNMEDVKIQKEEEPENNTVIEGVKEESQPDENTKEMDEVEEDDEDDDQPMISPDNSIFGDTKSESKQLGNTSSVANTPSEIPDAHKAEQEDIIEKTESVDKKVDSGEERNEQEREIMNDHSKSANPKKTTITRVEPETFEIPQAHEIVIPSYSKWFNLEKIHSIEVQSLPEFFTNRIPSKTPEVYMRYRNFMVNSYRLNPNEYFSVTTARRNVSGDAAALFRLHKFLTKWGLINYQVDSKLLPKNIEPPLTSQYSTRHDAPRGLFPFESYKPSVQLPDMAKLKKMMNTSDSESTLYKYLKESKRKYDEITHPPSTTDDENGDKNDNGGKMNNEVSTSTSMTGDANLLEEGETSRPLKKVKILEQIDENWSKEDLQKLLKGIQEFGADWYKVAKNVGNKSPEQCILRFLQLPIEDKFLYGDGNGKGDNDNGLGPLKYAPHLPFSKSENPVLSTIAFLVGLVNPKTVQSMTQRAIQSAESIKSQKEEISDQKPIEHIKEGSEIAISSLGYRSHIFATNEERQMNFLTNELIRLQMEKLDAKLNHLKKLEKFMELERKTLERQQENLLIQRLNFNQNSSKIVNVLSKCLNLISDSNINNSSVAEKEEIRSQIDHFKSMLSKPETLSIGKNPFNKPNIETGENHNGQSISNENDVKPISIEAPQFYRYWSA
# B2: Swp82 (natural protein)
# chain: MLGEDEGNTVLEKGNNPSVKQGEVGAVFIVPKILIREHERVILKQILQILDQDELVQPPLDKFPYKKLELPKYIDELKTRDATNTSYKMIQLDAYGEKKVGSNGELFGGRHYLFNTFTFTAHMGVLLVLLQDVIKVLYQSNATHDEDEFIVQHDQILVMETSEEQTKFLAKNGVIPEESKGSFKYITARSAFVEFGASVIAGGQRIVDDYWESLAKKQNLSSHQRVFKLSTNLISKISLLRPSFQNNRISNANEISANTNNTCTISTSKFESQYPIVTEQPSAEIREAYIENFAKGEHISAIVPGQSISGTLELSAQFRVPRYHSKNSFQQALQMKAMDIPIGRHEELLAQYESQAPDGSASISLPNHIPSVNPSNKPIKRMLSSILDINVSSSKNKKSEENEMIKPMNKGQHKNNTSLNINGWKFESLPLKSAENSGKQQYYRGLPLYEKNTLLERLKQLTPNEIKELEHLHDAVFVNTGLQNVRKVRTKKWKKYWQYKAGIPIGLKRSQLDEFKNKYLKDVLAQTSVTTNFNEITNTDETITTKRVPNPNFLGNCNIKDFKPPYIYSHVNKVPQNVAGDKTAVKLDTEVKNTNANPVVATDPVAAKPDNLANFSNEVAMNN
# B3: Snf12 (natural protein)
# chain: MSKVMKPSNGKGSRKSSKAATPDTKNFFHAKKKDPVNQDKANNASQITPTVPHSHPSDMVIPDHLAELIPELYSFQQLVDSEKRLDHFIHLRNLHMKRMVAQWERSKLSQEFLYPHLNFPNVKFLRIFISNVSENQPWQMDTNNEADLMALENATWTMRIEGRLLDNVQANDPAREKFSSFIESIVVDFKNKENDNVPSTKFNAAPEENATEGPSDKKLNLNLPLQFSLPNGDNSTTTNTDQNNATMGEETAKKDMSSTTPKLESVKWQYDPNNPVDFDGLDIKRVGSENVECTISILRKSSPEEPFMSYSPQLTAIIGLKSGTSHDAIFSIYKYIHLNELLTNDESAFENLMGNRNNHNSNTSTSKMLDAASSQVSIVKLDTQLITLLPSSLKESSPDTMKLTDLLSLINSTHLLPLQPIEIDYTVRVDKASTYGELVLDIEVPDVNALKFNNTQRESQIGAAELNENARELEQIKPKIALQDKEITSVLSNLHESNKRYRFFKKISEDPVKALNECIASTSNALKVLSGDEGYNEDMVRRANFYKENEAMLRENIEVILSNGRM
# Experiments:
# Test in all cases: cryo-EM structure
# Snf2 = Snf2 (S. cerevisiae, UniProt P22082 1-1703)
# Chain of Snf2 (P22082 whole entry): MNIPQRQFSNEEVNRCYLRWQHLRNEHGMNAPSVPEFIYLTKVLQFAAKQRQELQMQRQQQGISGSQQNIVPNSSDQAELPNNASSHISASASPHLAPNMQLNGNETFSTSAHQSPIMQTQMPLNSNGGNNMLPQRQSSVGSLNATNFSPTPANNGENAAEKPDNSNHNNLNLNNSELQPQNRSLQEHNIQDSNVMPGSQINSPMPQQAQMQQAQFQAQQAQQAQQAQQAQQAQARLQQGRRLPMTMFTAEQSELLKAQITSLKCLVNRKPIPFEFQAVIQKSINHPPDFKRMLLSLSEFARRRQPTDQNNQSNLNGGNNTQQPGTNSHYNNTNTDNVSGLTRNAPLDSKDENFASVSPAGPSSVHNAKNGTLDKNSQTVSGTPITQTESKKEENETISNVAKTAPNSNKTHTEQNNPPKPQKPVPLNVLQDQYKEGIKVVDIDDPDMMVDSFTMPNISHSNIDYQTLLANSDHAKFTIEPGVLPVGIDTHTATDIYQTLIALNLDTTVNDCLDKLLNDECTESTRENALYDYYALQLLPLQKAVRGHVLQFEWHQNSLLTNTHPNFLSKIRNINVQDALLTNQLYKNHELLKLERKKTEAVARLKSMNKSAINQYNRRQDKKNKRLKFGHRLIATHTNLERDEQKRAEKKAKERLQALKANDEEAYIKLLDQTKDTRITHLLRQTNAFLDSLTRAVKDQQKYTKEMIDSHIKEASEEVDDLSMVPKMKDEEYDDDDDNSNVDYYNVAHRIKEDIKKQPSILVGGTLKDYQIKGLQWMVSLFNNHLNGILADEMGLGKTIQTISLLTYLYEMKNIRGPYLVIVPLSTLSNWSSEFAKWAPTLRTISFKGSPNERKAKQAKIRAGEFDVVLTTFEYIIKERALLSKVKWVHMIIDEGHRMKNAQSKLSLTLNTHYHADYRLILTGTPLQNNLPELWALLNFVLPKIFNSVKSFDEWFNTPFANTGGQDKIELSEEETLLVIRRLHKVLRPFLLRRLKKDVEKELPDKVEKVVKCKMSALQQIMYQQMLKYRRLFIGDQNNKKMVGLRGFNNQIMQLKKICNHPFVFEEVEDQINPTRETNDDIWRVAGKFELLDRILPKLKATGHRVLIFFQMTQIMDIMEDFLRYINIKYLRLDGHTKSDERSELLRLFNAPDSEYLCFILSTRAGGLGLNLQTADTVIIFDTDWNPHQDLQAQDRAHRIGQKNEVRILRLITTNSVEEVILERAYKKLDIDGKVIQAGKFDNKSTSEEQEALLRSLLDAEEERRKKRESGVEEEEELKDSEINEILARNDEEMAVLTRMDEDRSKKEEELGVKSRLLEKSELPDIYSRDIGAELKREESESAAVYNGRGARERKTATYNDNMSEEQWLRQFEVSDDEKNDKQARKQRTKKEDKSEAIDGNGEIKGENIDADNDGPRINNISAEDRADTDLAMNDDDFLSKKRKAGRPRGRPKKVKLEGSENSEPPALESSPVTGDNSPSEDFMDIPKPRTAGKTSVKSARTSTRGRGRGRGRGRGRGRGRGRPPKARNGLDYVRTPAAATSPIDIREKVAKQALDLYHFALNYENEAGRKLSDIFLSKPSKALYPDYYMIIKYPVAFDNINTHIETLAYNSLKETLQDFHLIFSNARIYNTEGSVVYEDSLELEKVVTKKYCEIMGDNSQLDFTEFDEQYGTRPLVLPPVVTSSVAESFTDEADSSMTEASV
# Swi1 = biological target: T1, Swi1
# Snf5 = Snf5 (S. cerevisiae, UniProt P18480 1-905)
# Chain of Snf5 (P18480 whole entry): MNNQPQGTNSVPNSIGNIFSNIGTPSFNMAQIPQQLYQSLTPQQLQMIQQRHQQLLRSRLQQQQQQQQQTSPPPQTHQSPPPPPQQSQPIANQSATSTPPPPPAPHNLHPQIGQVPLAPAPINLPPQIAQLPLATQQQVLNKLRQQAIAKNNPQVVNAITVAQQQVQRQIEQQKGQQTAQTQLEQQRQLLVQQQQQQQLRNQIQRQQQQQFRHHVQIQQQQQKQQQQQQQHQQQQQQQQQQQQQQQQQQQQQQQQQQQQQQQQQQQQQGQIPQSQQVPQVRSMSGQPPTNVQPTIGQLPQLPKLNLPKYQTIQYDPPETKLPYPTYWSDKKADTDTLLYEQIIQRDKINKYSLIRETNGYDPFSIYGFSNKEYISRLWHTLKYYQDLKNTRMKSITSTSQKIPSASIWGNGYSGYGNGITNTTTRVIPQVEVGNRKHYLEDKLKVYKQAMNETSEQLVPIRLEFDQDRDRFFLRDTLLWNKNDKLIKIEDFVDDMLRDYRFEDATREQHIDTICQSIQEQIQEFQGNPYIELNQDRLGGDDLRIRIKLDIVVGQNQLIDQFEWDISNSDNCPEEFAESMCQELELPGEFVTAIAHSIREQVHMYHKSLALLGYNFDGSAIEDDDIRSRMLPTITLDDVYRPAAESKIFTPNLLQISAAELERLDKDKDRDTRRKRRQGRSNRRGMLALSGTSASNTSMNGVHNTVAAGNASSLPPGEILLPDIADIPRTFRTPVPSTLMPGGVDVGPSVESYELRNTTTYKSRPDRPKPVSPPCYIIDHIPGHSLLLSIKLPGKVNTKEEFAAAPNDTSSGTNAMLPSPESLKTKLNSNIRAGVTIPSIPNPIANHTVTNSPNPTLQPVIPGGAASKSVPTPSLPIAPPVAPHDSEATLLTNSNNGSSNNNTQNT
# cryo-EM structure = biological target: the molecule itself
# Swi3 = biological target: B1
binding result (Snf2),binding result (Swi1),binding result (Snf5),binding result (Swi3),Binder,stoichiometry N (cryo-EM structure)
binds,binds,binds,–,B1,2
–,–,binds,binds,B2,–
–,binds,–,binds,B3,–
